From patent publication US20240043820

Legend:
[1] = target: SpCas9 Mut 4110 N767E,Q771R,K772Q,K775D,R780K,Q844R,L847M,K848T,D850N,I852F,K913E,G915R,F916W,I917V,V922M (Streptococcus pyogenes) (UniProt Q99ZW2); experiment: cell_activity; settings: yeast survival assay; PAM not stated
[2] = target: SpCas9 Mut 2.2 (TurboCas9) V842L,Q844R,F846Y,L847M,I852F (Streptococcus pyogenes) (UniProt Q99ZW2); experiment: cell_activity; settings: HEK293T; 5% alleles unedited vs 36% for WT; PAM not stated

## HIS3 gRNA ; HIS3 target site
[1]
  activity (fold vs WT SpCas9): 3.9

## ADE2 gRNA ; ADE2 target site
[1]
  activity (fold vs WT SpCas9): 2

## VEGFA gRNA ; VEGFA target site
[2]
  activity (fold vs WT SpCas9): 1.5
